This is an account of results in paper PMC12442453, “An asymmetric tetrabody is a potent and efficacious agonist of the erythropoietin receptor in vitro and in vivo” (Protein Science : A Publication of the Protein Society, 2025).

Numbering of substitutions follows the chain as printed.

For one assay, the target named is T1, His-tagged ECD of EPHB4 (Homo sapiens (assumed), UniProt P54760).
T1 construct: receptor tyrosine kinase EPHB4, ectodomain
The assay is described as follows: ELISA; His-tagged ECDs of EPOR, CD131 or EPHB4 tested against Db-Fc protein. To be noted: both partners purified.

In another assay the target is T2, His-tagged ECD of CD131 (Homo sapiens (assumed), UniProt P32927).
T2 construct: β-common cytokine receptor (β-CR, CD131), ectodomain; also called β-common cytokine receptor; β-CR
The description is as above. As to conditions: both partners purified.

Assay [1] has as its target human EPOR, endogenous on TF-1 cells (Homo sapiens (TF-1 cells), UniProt P19235). The assay is described as follows: cell-based or functional assay.
Assay [2] has as its target T3, human EPOR ectodomain (ECD) fused to a human Fc domain (EPOR-Fc) (human, UniProt P19235).
T3 construct: erythropoietin receptor (EPOR), human, ectodomain; Results and legends name EPOR-Fc as the immobilised protein of the ELISA and BLI experiments; the methods describe His-EPOR instead; also called human EPOR-Fc
The assay is described as follows: BLI; results and legends: EPOR-Fc immobilised, Db-Fc in solution, 600 s association, 600 s dissociation, global 1:1 fit; methods: Abs captured on anti-human Fc sensors, His-EPOR in solution in 3-fold dilutions from 100 nM, 25°C, PBS 0.05% Tween 20. As to conditions: both partners purified.

In assay [3] the target is T3, human EPOR ectodomain (ECD) fused to a …. As to the kind of experiment: ELISA; EPOR-Fc (human or mouse) immobilised by results and legends, Db-Fc or VL–VH protein in solution (single point and serial dilutions), 1 h room temperature, PBST, anti-Fc-HRP; apparent affinities; the methods name His-EPOR as the coated protein. To be noted: both partners purified.

T3 sequence (P19235 25-250): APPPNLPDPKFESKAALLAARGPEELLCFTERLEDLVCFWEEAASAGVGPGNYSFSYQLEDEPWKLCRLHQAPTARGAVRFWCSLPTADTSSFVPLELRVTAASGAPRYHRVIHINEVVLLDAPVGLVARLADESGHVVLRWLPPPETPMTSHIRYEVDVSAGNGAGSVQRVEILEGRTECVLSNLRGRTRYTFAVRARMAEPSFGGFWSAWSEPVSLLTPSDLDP
Chain of human EPOR, endogenous on TF-1 cells (P19235 25-508): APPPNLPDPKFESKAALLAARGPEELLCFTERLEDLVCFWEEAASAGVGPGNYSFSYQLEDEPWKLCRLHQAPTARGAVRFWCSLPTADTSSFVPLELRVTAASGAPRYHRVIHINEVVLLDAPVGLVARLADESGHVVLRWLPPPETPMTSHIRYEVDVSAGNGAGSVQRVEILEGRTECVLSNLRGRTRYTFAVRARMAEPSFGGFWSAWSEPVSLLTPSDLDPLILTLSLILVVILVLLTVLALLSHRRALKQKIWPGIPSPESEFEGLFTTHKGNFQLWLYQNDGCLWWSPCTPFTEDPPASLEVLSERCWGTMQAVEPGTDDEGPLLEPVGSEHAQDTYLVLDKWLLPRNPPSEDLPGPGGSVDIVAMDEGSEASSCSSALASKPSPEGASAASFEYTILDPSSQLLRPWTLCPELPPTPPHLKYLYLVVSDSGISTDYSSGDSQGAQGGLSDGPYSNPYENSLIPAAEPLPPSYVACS
T1 sequence (P54760 16-539): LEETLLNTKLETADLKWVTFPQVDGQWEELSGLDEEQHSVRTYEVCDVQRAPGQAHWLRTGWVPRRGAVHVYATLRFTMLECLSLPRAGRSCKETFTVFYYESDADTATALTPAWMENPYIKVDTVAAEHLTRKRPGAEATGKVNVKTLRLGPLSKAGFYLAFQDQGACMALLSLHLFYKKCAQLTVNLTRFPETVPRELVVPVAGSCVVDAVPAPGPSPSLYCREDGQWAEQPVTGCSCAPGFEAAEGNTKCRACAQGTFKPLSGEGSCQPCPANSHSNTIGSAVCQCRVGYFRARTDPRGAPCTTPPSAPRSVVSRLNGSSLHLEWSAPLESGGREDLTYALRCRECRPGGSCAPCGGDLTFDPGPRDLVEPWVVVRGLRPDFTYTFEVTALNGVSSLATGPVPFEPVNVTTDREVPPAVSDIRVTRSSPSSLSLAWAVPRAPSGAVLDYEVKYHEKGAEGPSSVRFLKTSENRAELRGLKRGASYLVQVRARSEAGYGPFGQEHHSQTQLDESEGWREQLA
T2 sequence (P32927 17-443): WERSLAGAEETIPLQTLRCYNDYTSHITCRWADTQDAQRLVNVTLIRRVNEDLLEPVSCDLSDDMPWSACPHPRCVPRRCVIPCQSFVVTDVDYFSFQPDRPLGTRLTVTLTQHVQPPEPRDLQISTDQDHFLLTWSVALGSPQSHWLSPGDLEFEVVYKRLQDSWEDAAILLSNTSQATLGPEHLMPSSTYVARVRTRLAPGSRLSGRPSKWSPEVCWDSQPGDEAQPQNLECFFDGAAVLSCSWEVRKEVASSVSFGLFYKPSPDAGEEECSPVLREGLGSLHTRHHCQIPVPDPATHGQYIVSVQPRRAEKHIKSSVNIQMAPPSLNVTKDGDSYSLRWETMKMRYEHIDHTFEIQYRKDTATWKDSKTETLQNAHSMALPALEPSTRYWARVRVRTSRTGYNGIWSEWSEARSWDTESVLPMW

B1: Db-Fc 1 (Fc fusion)
VH: EVQLVESGGGLVQPGGSLRLSCAASGFNLYSYYIHWVRQAPGKGLEWVASISPYYSYTYYADSVKGRFTISADTSKNTAYLQMNSLRAEDTAVYYCARHGYGAMDYWGQGTLVTVSS
VL: DIQMTQSPSSLSASVGDRVTITCRASQSVSSAVAWYQQKPGKAPKLLIYSASSLYSGVPSRFSGSRSGTDFTLTISSLQPEDFATYYCQQSSYSLITFGQGTKVEIK
notes: VL domain of clone 1 (human framework of the Db library); Gly5 linker between VL and VH; VH domain of clone 1; IMGT numbering, heavy chain; Diabody-Fc fusion (VL-Gly5-VH-Fc); Protein-A purified preparation: mainly the dimeric Db-Fc, with a minor earlier-eluting SEC peak (putative Tb-Fc2); also called Db 1; VL–VH 1; source: Expi293, transient expression, purified (rProtein-A); not shown: Fc, …
In the case of B1, the binding result with His-tagged ECD of EPHB4 and with His-tagged ECD of CD131 was “no binding” throughout. Besides, the “UT-7/Epo cell proliferation (ATP/luciferase luminescence), EC50” value in assay [1] stood at 0.2 nM. In addition, the Kd in assay [2] was determined as 1.5 nM. The EC50 in assay [3] came out at 1.5 nM.

B2: Db-Fc 2 (Fc fusion)
VH: B1 VH with Y30S, G100S, G102A, M104L
VL: DIQMTQSPSSLSASVGDRVTITCRASQSVSSAVAWYQQKPGKAPKLLIYSASSLYSGVPSRFSGSRSGTDFTLTISSLQPEDFATYYCQQAYWPITFGQGTKVEIK
notes: VL domain of clone 2 (human framework of the Db library); Gly5 linker between VL and VH; VH domain of clone 2; Diabody-Fc fusion (VL-Gly5-VH-Fc); Protein-A purified preparation: mainly the dimeric Db-Fc, with a minor earlier-eluting SEC peak; also called Db 2; VL–VH 2; source: Expi293, transient expression, purified (rProtein-A); not shown: Fc, C-terminal, kept
For B2, the binding result with His-tagged ECD of EPHB4 and with His-tagged ECD of CD131 was “no binding” in each case. Besides, the “UT-7/Epo cell proliferation (ATP/luciferase luminescence), EC50” value in assay [1] worked out at 0.4 nM. The molecule further displayed a Kd in assay [2] of 5.1 nM. In assay [3], the EC50 came out at 0.6 nM.

B3: Db-Fc 1.2 (Fc fusion)
VH: B1 VH with Y30R, I34M, S52A, Y55H, S56G, M104L
VL: B1 VL with Y93N, S94F
notes: VL domain of variant 1.2; Gly5 linker between VL and VH; VH domain of variant 1.2; Diabody-Fc fusion; nearly homogeneous Db-Fc peak by SEC; In vivo used both as unfractionated mixture and as the Db-Fc fraction from preparative SEC; also called variant 1.2; Db-Fcmix 1.2; source: Expi293, transient expression, purified (rProtein-A); not shown: Fc, C-terminal, kept
In assay [2], B3 returned a Kd of 1.8 nM.

B4: Db-Fc 1.3 (Fc fusion)
VH: B1 VH with Y30R, I34M, Y54H, S56G, G102S
VL: B1 VL with Y93D, I96F
notes: VL domain of variant 1.3; derived from the library on Db 1.1 (PDB 9NWU); Gly5 linker between VL and VH; VH domain of variant 1.3; the fraction is named in the readout of each functional row; also called variant 1.3; VL–VH 1.3; source: Expi293, transient expression, purified (rProtein-A); fractions by preparative SEC; not shown: Fc, C-terminal, kept
In the case of B4, the binding result in assay [2] is reported as “binds”.

B5: Db-Fc 1.1 (Fc fusion)
VH: B1 VH with Y30R, I34M
VL: B1 VL
notes: VL domain of variant 1.1; Gly5 linker between VL and VH; VH domain of variant 1.1; Diabody-Fc fusion; >99% eluted as the Db-Fc form by SEC; Called Db-Fcmix 1.1 where not fractionated by preparative SEC; also called variant 1.1; Db-Fcmix 1.1; source: Expi293, transient expression, purified (rProtein-A); not shown: Fc, C-terminal, kept
For B5, in assay [2], binding was characterised by a dissociation constant (Kd) of 5 nM.
